Source: the supplement of paper PMC6757056
± gives the standard deviation of the averaged measurements.

B1: library; a variant is named by its letters at N, in order (parent)
chain: GCUGUCACCGGUGUAUUACCCUAGUGGUCGACCGGUCUGAUGAGUCUNNNNNNAGACGAAACAGC

How the values were obtained:
[1] = variants of: B1; assay: normalized RNA/DNA level with ligand (relative to sTRSVctl = 100) (log10 (% of sTRSVctl)); ligand: hypoxanthine (xanthine aptamer); higher = less ribozyme self-cleavage, higher mRNA level; details: ligand concentration (+) RNA-Seq: 5 mM, HEK293T, reporter: mCherry (pCS4076), ligand present: yes
Summary of the method: (§1)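 HEK293T cells were transfected with library plasmids carrying ribozyme switches linked to an mCherry reporter, or an eGFP reporter in some ligand experiments, at 4 µg per well of a 6-well plate, with any ligand added 1 h beforehand. After 72 h, total RNA was extracted with EDTA, reverse-transcribed, amplified, barcoded and sequenced. RNA level was defined as RNA reads over DNA reads, normalized to a spiked-in non-cleaving sequence or to the top-ranked sequences. That value was multiplied by 100 and converted to log10, the top set was 25 sequences, and only sequences with ≥100 DNA reads were retained.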

[2] = variants of: B1; assay: normalized RNA/DNA level without ligand (relative to sTRSVctl = 100) (log10 (% of sTRSVctl)); ligand: hypoxanthine (xanthine aptamer); higher = less ribozyme self-cleavage, higher mRNA level; details: HEK293T, reporter: mCherry (pCS4076), ligand present: no
Summary of the method: as §1

Variant | normalized RNA/DNA level with ligand (log10) [1] | normalized RNA/DNA level without ligand (log10) [2]
UGAGCA | 1.97 ± 0.04 | 1.805 ± 0.0096
AGCAAA | 1.92 ± 0.047 | 1.7327 ± 0.00011
GGAGUA | 1.896 ± 0.009 | 1.77 ± 0.018
GGAGUU | 1.97 ± 0.038 | 1.881 ± 0.0061
CGAGUA | 1.928 ± 0.013 | 1.72 ± 0.042
CGAGUG | 1.92 ± 0.0018 | 1.76 ± 0.04
UGAAUG | 1.9 ± 0.0011 | 1.75 ± 0.061
UGAAUA | 1.93 ± 0.026 | 1.86 ± 0.019
UGAAUC | 1.943 ± 0.013 | 1.96 ± 0.022
UGAAUU | 1.93 ± 0.021 | 1.897 ± 0.014
UCUGUU | 1.98 ± 0.035 | 1.88 ± 0.034
UCUGUC | 1.96 ± 0.0083 | 1.956 ± 0.011
UCUGUA | 1.95 ± 0.024 | 1.8296 ± 0.0016
GGACUA | 1.91 ± 0.09 | 1.84 ± 0.023
GGACUU | 1.94 ± 0.04 | 1.89 ± 0.04
GGACUC | 1.9331 ± 0.00093 | 1.92 ± 0.085
CCUGUU | 2.04 ± 0.05 | 1.9 ± 0.14
CCUGUC | 1.989 ± 0.006 | 1.987 ± 0.018
UGAGUA | 1.902 ± 0.015 | 1.81 ± 0.091
UGAGUU | 1.92 ± 0.039 | 1.85 ± 0.042
UCUUAU | 1.9468 ± 0.0014 | 1.84 ± 0.092
UCUUAC | 1.94 ± 0.058 | 1.83 ± 0.044
UCUUAA | 1.87 ± 0.047 | 1.83 ± 0.041

Variant | normalized RNA/DNA level with ligand (log10) [1] | normalized RNA/DNA level without ligand (log10) [2]
UCUUAG | 1.93 ± 0.042 | 1.66 ± 0.017
CGCAAC | 1.928 ± 0.01 | 1.88 ± 0.024
CGCAAG | 1.847 ± 0.014 | 1.78 ± 0.1
CGCAAU | 1.94 ± 0.015 | 1.77 ± 0.036
AGACUG | 1.89 ± 0.045 | 1.58 ± 0.036
AGACUA | 1.95 ± 0.056 | 1.762 ± 0.0092
UGAUUA | 1.91 ± 0.087 | 1.88 ± 0.049
UGAUUG | 1.97 ± 0.043 | 1.763 ± 0.0098
GGACGU | 1.887 ± 0.013 | 1.814 ± 0.0056
GGACGC | 1.86 ± 0.044 | 1.49 ± 0.12
UCUGCA | 1.92 ± 0.024 | 1.88 ± 0.059
UCUGCC | 2.04 ± 0.021 | 1.89 ± 0.022
UCUGCG | 2.01 ± 0.08 | 1.73 ± 0.015
UCUGCU | 1.968 ± 0.0085 | 1.924 ± 0.0035
GGAUUA | 1.94 ± 0.04 | 1.83 ± 0.057
GGAUUC | 1.98 ± 0.041 | 1.94 ± 0.0086
GGAUUU | 1.99 ± 0.024 | 1.89 ± 0.02
UCUGGU | 1.96 ± 0.031 | 1.69 ± 0.084
AGAGUC | 1.937 ± 0.017 | 1.8831 ± 0.0015
AGAGUG | 1.82 ± 0.047 | 1.331 ± 0.0048
AGAGUU | 1.905 ± 0.0059 | 1.8267 ± 0.0011
AGAUAU | 1.88 ± 0.032 | 1.798 ± 0.015
AGAUAG | 1.82 ± 0.025 | 1.441 ± 0.0087

Variant | normalized RNA/DNA level with ligand (log10) [1] | normalized RNA/DNA level without ligand (log10) [2]
UGAAGC | 1.925 ± 0.0097 | 1.807 ± 0.01
UGAAGG | 1.83 ± 0.055 | 1.48 ± 0.062
CCUUUU | 1.966 ± 0.019 | 1.892 ± 0.018
CCUUUA | 1.948 ± 0.019 | 1.84 ± 0.035
CCUUUC | 2 ± 0.1 | 1.98 ± 0.046
CCUUUG | 1.96 ± 0.09 | 1.81 ± 0.076
AGACAC | 1.92 ± 0.025 | 1.76 ± 0.033
CGAACU | 1.93 ± 0.056 | 1.79 ± 0.018
CGAACG | 1.96 ± 0.038 | 1.8 ± 0.035
CGAACA | 1.94 ± 0.011 | 1.76 ± 0.015
CGAGCU | 1.968 ± 0.0032 | 1.86 ± 0.052
CGAGCC | 1.94 ± 0.11 | 1.852 ± 0.0083
CGAGCG | 1.94 ± 0.057 | 1.8 ± 0.02
GGAUGU | 1.93 ± 0.033 | 1.746 ± 0.0056
AGAGCU | 1.93 ± 0.029 | 1.83 ± 0.046
AGAGCA | 1.94 ± 0.065 | 1.75 ± 0.027
AGAGCC | 1.955 ± 0.018 | 1.823 ± 0.017
UGCAAU | 1.9506 ± 0.00045 | 1.807 ± 0.01
UGCAAC | 1.963 ± 0.0065 | 1.83 ± 0.022
GGAUCA | 1.96 ± 0.04 | 1.84 ± 0.037
GGAUCC | 1.96 ± 0.049 | 1.95 ± 0.018
GGAUCU | 1.95 ± 0.051 | 1.92 ± 0.023
ACUGCU | 1.91 ± 0.033 | 1.86 ± 0.037

Variant | normalized RNA/DNA level with ligand (log10) [1] | normalized RNA/DNA level without ligand (log10) [2]
ACUGCC | 1.9853 ± 0.0019 | 1.89 ± 0.065
GCUUGC | 1.96 ± 0.033 | 1.87 ± 0.048
GCUUGU | 1.93 ± 0.0067 | 1.72 ± 0.023
GGAAAU | 1.9 ± 0.071 | 1.77 ± 0.053
GGAAAC | 1.939 ± 0.018 | 1.84 ± 0.014
UCUUGG | 1.92 ± 0.035 | 1.751 ± 0.008
UCUUGU | 1.91 ± 0.1 | 1.667 ± 0.0039
UCUUGC | 1.98 ± 0.1 | 1.9 ± 0.022
CGAGAU | 1.94 ± 0.036 | 1.71 ± 0.018
CGAGAC | 1.93 ± 0.036 | 1.72 ± 0.025
CGAGGA | 1.975 ± 0.0031 | 1.713 ± 0.011
CGAGGC | 1.97 ± 0.024 | 1.89 ± 0.0058
UGACGC | 1.96 ± 0.045 | 1.83 ± 0.038
UGAUAG | 1.88 ± 0.04 | 1.7 ± 0.041
UGAUAC | 1.926 ± 0.0041 | 1.848 ± 0.011
UGAUAA | 1.91 ± 0.028 | 1.8144 ± 0.0015
AGACCU | 1.92 ± 0.023 | 1.88 ± 0.044
AGACCG | 1.925 ± 0.004 | 1.75 ± 0.067
AGACCA | 1.93 ± 0.046 | 1.85 ± 0.015
UGACUG | 1.912 ± 0.0096 | 1.77 ± 0.043
UGACUU | 1.913 ± 0.0093 | 1.89 ± 0.03
CGAAUU | 1.95 ± 0.046 | 1.807 ± 0.00086
CGAAUC | 1.98 ± 0.028 | 1.96 ± 0.042

Variant | normalized RNA/DNA level with ligand (log10) [1] | normalized RNA/DNA level without ligand (log10) [2]
CGAAUG | 1.913 ± 0.003 | 1.883 ± 0.008
ACUUAC | 1.93 ± 0.046 | 1.84 ± 0.052
ACUUAU | 1.9 ± 0.029 | 1.729 ± 0.014
CGAUUG | 1.92 ± 0.045 | 1.922 ± 0.0055
GCUGGU | 1.96 ± 0.034 | 1.824 ± 0.013
GCUGGA | 1.904 ± 0.011 | 1.8 ± 0.074
UGAAAU | 1.907 ± 0.005 | 1.76 ± 0.005
UGAAAA | 1.921 ± 0.0047 | 1.836 ± 0.015
UGAAAG | 1.862 ± 0.017 | 1.72 ± 0.039
ACUUUU | 1.92 ± 0.044 | 1.868 ± 0.012
ACUUUA | 1.903 ± 0.015 | 1.82 ± 0.067
ACUUUC | 1.98 ± 0.046 | 1.95 ± 0.044
ACUUUG | 1.91 ± 0.043 | 1.57 ± 0.021
CCUGCU | 2.02 ± 0.049 | 1.98 ± 0.08
CCUGCC | 2.04 ± 0.026 | 2.01 ± 0.023
GGAGAU | 1.93 ± 0.038 | 1.72 ± 0.024
AGAUCA | 1.97 ± 0.049 | 1.81 ± 0.045
AGAUCU | 1.94 ± 0.051 | 1.829 ± 0.015
AGAUCG | 1.89 ± 0.031 | 1.55 ± 0.048
AGAUCC | 1.936 ± 0.0091 | 1.874 ± 0.0045
UGAUCC | 1.91 ± 0.087 | 1.921 ± 0.012
UGAUCU | 2.022 ± 0.0077 | 1.939 ± 0.013
UGAUCA | 1.98 ± 0.031 | 1.899 ± 0.0037
